Reference: patent US20260209347A1 (BIORAY PHARMACEUTICAL, published 2026)
Read-outs that look alike come from different tables or passages of the source.

Experiments:
[1] = target: T1, human NKG2A/CD94 on cells (CHOK1-hNKG2A/CD94) (human, UniProt P26715 1-233; Q13241 1-179); assay: cell-based or functional assay
[2] = target: T1, human NKG2A/CD94 on cells …; assay: cell-based or functional assay; remark: listed apart in the source
[3] = target: T1, human NKG2A/CD94 on cells …; assay: FACS on human NKG2A overexpressing cell line
Protocol: (§1) Human NKG2A overexpressing cells (CHOK1-hNKG2A/CD94), cyno NKG2A overexpressing cells (CHOK1-cynoNKG2A/CD94), and human NKG2C overexpressing cells (CHOK1-hNKG2C/CD94) were digested with TrypLE (purchased from Gibco). Cells were collected by centrifugation, then resuspended to 2E6/mL with FACS buffer (PBS+2% FBS). The cells were added to a 96-well cell plate at 100 μL per well, and the supernatant was discarded after centrifugation. The antibody was gradiently diluted with FACS buffer (initial concentration of 200 nM, 5-fold dilution, including point 0, a total of 10 concentration points), added to the cells at 100 μL/well, mixed, and incubated at 4° C. for 1 hour. The incubated cells were centrifuged at 300 g for 5 min and washed twice with FACS buffer. Secondary antibody, anti-human IgG fluorescent secondary antibody 488 (purchased from Thermofisher A-11013), was added, incubated at 4° C. for one hour, then the cells were washed twice with FACS buffer, resuspended in PBS and analyzed by FACS instrument.
The binding activity of humanized antibodies to human NKG2A overexpressing cell line was detected by FACS (refer to Example 4 for FACS). The maximum MFIs of cAb-43 and its humanized mutant antibodies to human NKG2A overexpressing cell line were greater than that of the Z270 control antibody.

[4] = target: T2, human NKG2C/CD94 on cells (CHOK1-hNKG2C/CD94) (human, UniProt P26717 1-231; Q13241 1-179); assay: FACS on CHOK1-hNKG2C/CD94 cells
T2 construct: whole, on cells; also called human NKG2C overexpressing cells; human NKG2C overexpressing cell line
Protocol: as §1

[5] = target: T1, human NKG2A/CD94 on cells …; assay: FACS on CHOK1-hNKG2A/CD94 cells
Protocol: as §1

T2 sequence (P26717 whole entry, chain 1 of 2): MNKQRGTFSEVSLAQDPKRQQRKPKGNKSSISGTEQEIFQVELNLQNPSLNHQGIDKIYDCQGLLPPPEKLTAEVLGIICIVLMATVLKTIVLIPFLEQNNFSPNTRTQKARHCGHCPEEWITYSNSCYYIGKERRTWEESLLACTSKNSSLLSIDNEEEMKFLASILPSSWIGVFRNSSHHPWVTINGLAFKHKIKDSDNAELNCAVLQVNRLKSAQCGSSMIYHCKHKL
T2 sequence (Q13241 whole entry, chain 2 of 2): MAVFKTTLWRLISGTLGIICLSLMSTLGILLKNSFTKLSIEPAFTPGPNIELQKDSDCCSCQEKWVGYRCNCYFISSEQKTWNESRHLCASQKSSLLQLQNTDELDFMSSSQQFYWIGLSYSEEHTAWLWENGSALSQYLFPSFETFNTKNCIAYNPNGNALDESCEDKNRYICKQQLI
T1 sequence (P26715 whole entry, chain 1 of 2): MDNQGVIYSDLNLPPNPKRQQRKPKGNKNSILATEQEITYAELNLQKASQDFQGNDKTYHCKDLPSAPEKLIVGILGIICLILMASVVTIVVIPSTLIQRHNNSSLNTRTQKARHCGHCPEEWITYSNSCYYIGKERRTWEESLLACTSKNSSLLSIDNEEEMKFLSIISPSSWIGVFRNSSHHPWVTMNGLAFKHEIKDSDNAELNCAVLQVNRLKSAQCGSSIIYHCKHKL
T1 sequence (Q13241 whole entry, chain 2 of 2): as the sequence (Q13241 whole entry, chain 2 of 2) above

B1: hu-43VH-13/VL-11 (antibody, human IgG4 S228P, kappa, V domains shown)
VH: QVQLVQSGAEVKKPGASVKVSCKASGFNIQNTYIHWVRQAPGQGLEWIGRIDPASGSTEYAPKFQGRATITADTSTNTGYMELSSLRSEDTAVYYCARYGNFLYYYSMDYWGQGTLVTVSS
VL: DIVMTQSPLSLPVTPGEPASISCRSNKSLLHSNGNTYLYWFLQKPGQSPQLLIYRMSNLASGVPDRFSGSGSGTDFTLKISRVEAEDVGVYYCMQHLENPYTFGQGTKLEIKR
IC50 (nM), killing of LCL721.221 target cells by NK92 cells [1]: 0.37 nM

B2: hu-52VH-13/VL-11 (antibody, human IgG4 S228P, kappa, V domains shown)
VH: QVQLVQSGAEVKKPGASVKVSCKASGFNIQNTYLHWVRQAPGQGLEWMGRIDPANDNIKYVPKFQGRVTMTADTSTNTAYMELSSLRSEDTAVYYCTRHGLFYEGWFAYWGQGTLVTVSS
VL: DIQLTQSPSSLSASVGDRVTITCSVSSSISSSNLHWYQQKPGKAPKPLIYGTSNLASGVPSRFSGSGSGTDYTLTISSLQPEDAATYYCQQWSSYPYTFGQGTKLEIKR
notes: full-length humanized antibody; also called hu-52 humanized antibody
IC50 (nM), killing of LCL721.221 target cells by NK92 cells [2]: 0.19 nM | Maximum MFI [3]: 18800 MFI

B3: hu-52VH-13/VL-21 (antibody, human IgG4 S228P, kappa, V domains shown)
VH: QVQLVQSGAEVKKPGASVKVSCKASGFNIQNTYLHWVRQAPGQGLEWMGRIDPANDNIKYVPKFQGRVTMTADTSTNTAYMELSSLRSEDTAVYYCTRHGLFYEGWFAYWGQGTLVTVSS
VL: DIQLTQSPSTLSASVGDRVTITCSVSSSISSSNLHWYQQKPGKAPKPLIYGTSNLASGVPSRFSGSGSGTEYTLTISSLQPDDAATYYCQQWSSYPYTFGQGTKLEIKR
notes: as for B2
IC50 (nM), killing of LCL721.221 target cells by NK92 cells [2]: 0.14 nM | Maximum MFI [3]: 18900 MFI

B4: hu-52VH-23/VL-11 (antibody, human IgG4 S228P, kappa, V domains shown)
VH: QVQLVQSGAEVKKPGASVKVSCKASGFNIQNTYLHWVRQAPGQGLEWMGRIDPANDNIKYVPKFQGRVTMTADTSINTAYMELSRLRSDDTAVYYCTRHGLFYEGWFAYWGQGTLVTVSS
VL: DIQLTQSPSSLSASVGDRVTITCSVSSSISSSNLHWYQQKPGKAPKPLIYGTSNLASGVPSRFSGSGSGTDYTLTISSLQPEDAATYYCQQWSSYPYTFGQGTKLEIKR
notes: as for B2
IC50 (nM), killing of LCL721.221 target cells by NK92 cells [2]: 0.13 nM | Maximum MFI [3]: 18700 MFI

B5: hu-52VH-23/VL-21 (antibody, human IgG4 S228P, kappa, V domains shown)
VH: QVQLVQSGAEVKKPGASVKVSCKASGFNIQNTYLHWVRQAPGQGLEWMGRIDPANDNIKYVPKFQGRVTMTADTSINTAYMELSRLRSDDTAVYYCTRHGLFYEGWFAYWGQGTLVTVSS
VL: DIQLTQSPSTLSASVGDRVTITCSVSSSISSSNLHWYQQKPGKAPKPLIYGTSNLASGVPSRFSGSGSGTEYTLTISSLQPDDAATYYCQQWSSYPYTFGQGTKLEIKR
notes: as for B2
IC50 (nM), killing of LCL721.221 target cells by NK92 cells [2]: 0.12 nM | Maximum MFI [3]: 18000 MFI

B6: hu-52VH-33/VL-11 (antibody, human IgG4 S228P, kappa, V domains shown)
VH: QVQLVQSGAEVKKPGSSVKVSCKASGFNIQNTYLHWVRQAPGQGLEWMGRIDPANDNIKYVPKFQGRVTITADTSTNTAYMELSSLRSEDTAVYYCTRHGLFYEGWFAYWGQGTLVTVSS
VL: DIQLTQSPSSLSASVGDRVTITCSVSSSISSSNLHWYQQKPGKAPKPLIYGTSNLASGVPSRFSGSGSGTDYTLTISSLQPEDAATYYCQQWSSYPYTFGQGTKLEIKR
notes: full-length humanized IgG4 antibody (not the L235E/D265A/R409K IgG4 mutant); also called hu-52 humanized antibody
IC50 (nM), killing of LCL721.221 target cells by NK92 cells [2]: 0.09 nM | Maximum MFI [3]: 18800 MFI

B7: hu-52VH-33/VL-21 (antibody, human IgG4 S228P, kappa, V domains shown)
VH: QVQLVQSGAEVKKPGSSVKVSCKASGFNIQNTYLHWVRQAPGQGLEWMGRIDPANDNIKYVPKFQGRVTITADTSTNTAYMELSSLRSEDTAVYYCTRHGLFYEGWFAYWGQGTLVTVSS
VL: DIQLTQSPSTLSASVGDRVTITCSVSSSISSSNLHWYQQKPGKAPKPLIYGTSNLASGVPSRFSGSGSGTEYTLTISSLQPDDAATYYCQQWSSYPYTFGQGTKLEIKR
notes: as for B2
Maximum MFI [3]: 18000 MFI

B8: hu-52VH-13/VL-31 (antibody, human IgG4 S228P, kappa, V domains shown)
VH: QVQLVQSGAEVKKPGASVKVSCKASGFNIQNTYLHWVRQAPGQGLEWMGRIDPANDNIKYVPKFQGRVTMTADTSTNTAYMELSSLRSEDTAVYYCTRHGLFYEGWFAYWGQGTLVTVSS
VL: EIVLTQSPATLSLSPGERATLSCSVSSSISSSNLHWYQQKPGQAPRPLIYGTSNLASGIPARFSGSGSGTDYTLTISSLEPEDAAVYYCQQWSSYPYTFGQGTKLEIKR
notes: as for B2
IC50 (nM), killing of LCL721.221 target cells by NK92 cells [2]: 0.16 nM | Maximum MFI [3]: 18800 MFI

B9: hu-52VH-23/VL-31 (antibody, human IgG4 S228P, kappa, V domains shown)
VH: QVQLVQSGAEVKKPGASVKVSCKASGFNIQNTYLHWVRQAPGQGLEWMGRIDPANDNIKYVPKFQGRVTMTADTSINTAYMELSRLRSDDTAVYYCTRHGLFYEGWFAYWGQGTLVTVSS
VL: EIVLTQSPATLSLSPGERATLSCSVSSSISSSNLHWYQQKPGQAPRPLIYGTSNLASGIPARFSGSGSGTDYTLTISSLEPEDAAVYYCQQWSSYPYTFGQGTKLEIKR
notes: as for B2
Maximum MFI [3]: 18100 MFI

B10: cAb-52 (antibody, human IgG4 S228P, kappa, V domains shown)
VH: EVQLQQSVAELVRPGASVKLSCTASGFNIQNTYLHWVKQRPEQGLEWIGRIDPANDNIKYVPKFQGKATITADTSSNTAYLQLSSLTSEDTAIYYCTRHGLFYEGWFAYWGQGTLVTVST
VL: EIVLTQSPALMAASPGEKVTITCSVSSSISSSNLHWYQQKSGTSPKPWIYGTSNLASGVPVRFSGSGSGTSYSLTISSMEAEDAATYYCQQWSSYPYTFGSGTKLEIKR
notes: human-mouse chimeric antibody, human IgG4 constant region; also called antibody number 52; NKG2A chimeric antibody
binding result [4]: no binding (tested: initial concentration of 200 nM) | IC50 (nM), killing of LCL721.221 target cells by NK92 cells [2]: 0.28 nM | Maximum MFI [3]: 18800 MFI

B11: cAb-9 (antibody, human IgG4 S228P, kappa, V domains shown)
VH: EVQLQQSVAELVRPGASVKLSCTASGFNIQNTYMHWVKERPEQGLEWIGRIDPANGDTEFAPKFQGKATLTTDTSSNTAYLQLSSLTSEDTAIYYCGRERYFYGSRGFAYWGQGTLVTVSA
VL: DILMTQSPPSMSVSLGDTVSITCHASQGISSNIGWLQQKPGKSFKGLIYHGTNLEDGVPSRFSGSGSGADYSLTISSLESEDFADYYCVQYAQFPWTFGGGTKLEIKR
notes: human-mouse chimeric antibody, human IgG4 constant region; also called antibody number 9; NKG2A chimeric antibody
binding result [4]: no binding (tested: initial concentration of 200 nM) | binding result [5]: binds

B12: cAb-14 (antibody, human IgG4 S228P, kappa, V domains shown)
VH: EVQLQQSVAELVRPGASVKLSCTASGFNIKNTYIHWVKQRPEQGLEWIGRIDPANGNTKYAPKFQGKASIIVDTSSNTAYLQLSSLTSEDTAIYYCARYYASSPYYYNMDYWGQGTSVTVSS
VL: DIQMTQSPASLSVSVGETVTITCRASENIYSNLAWYQQKQGKSPQLLVYAATNLADGVPSRFSGSGSGTQYSLKINSLQSEDFGSYYCQHFWGTFTFGSGTKLEIKR
notes: human-mouse chimeric antibody, human IgG4 constant region; also called antibody number 14; NKG2A chimeric antibody
binding result [4]: no binding (tested: initial concentration of 200 nM) | binding result [5]: binds

B13: cAb-17 (antibody, human IgG4 S228P, kappa, V domains shown)
VH: EVQLQQSVAELVRPGASVKLSCTASGFNIKNTYIDWVKQRPEQGLEWIGNIDPANGNTKYAPKFQGKATITADTSSNTAYVQLSSLTSEDTAIYYCARWGGWDVRFAYWGQGTLVTVSA
VL: DIKMTQSPSSMYASLGERVTITCKASQDINTYLSWFQQKPGKSPKTLIYRANRLVDGVPSRFSGSGSGQNYSLTISSLEYEDMGIYYCLQYDEFPLTFGAGTKLELKR
notes: human-mouse chimeric antibody, human IgG4 constant region; also called antibody number 17; NKG2A chimeric antibody
binding result [4]: no binding (tested: initial concentration of 200 nM) | binding result [5]: binds

B14: cAb-35 (antibody, human IgG4 S228P, kappa, V domains shown)
VH: EVQLQQSVAELVRPGASVKLSCTASGFNIKNTYMDWVKQRPEQGLEWIGRIDPANGNTKHAPKFQGKATITTDTSSNTAYLQLSSLTSEDTAIYYCARWGGWDVRFAYWGQGTLVTVSA
VL: DIKMTQSPSSMYASLGERVTINCQASQDINSYLSWFQQKPGKSPKTLIHRANRLVDGVPSRFSGSGSGQDYSLTISSLEYEDMGIYYCLQFDEFPLTFGAGTKLELKR
notes: human-mouse chimeric antibody, human IgG4 constant region; also called antibody number 35; NKG2A chimeric antibody
binding result [4]: no binding (tested: initial concentration of 200 nM) | binding result [5]: binds

B15: cAb-24 (antibody, human IgG4 S228P, kappa, V domains shown)
VH: EVQLQQSVAELVRPGASVKLSCTASGFNIQNTYMHWVKQRPEQGLEWIGRIDPANGNTKYAPKFQGKATITADTSSNTAYLQLSSLTSEDTAIYYCARYYDSRYGYWGQGTTLTVSS
VL: DIKMTQSPSSMYASLGERVTITCKASQDINSYLSWFQQKPGKSPTTLIYRANRLVDGVPSRFSGSGSGQDYSLTISSLEYEDLGIYFCLQYDEFPWTFGGGTKLEIKR
notes: human-mouse chimeric antibody, human IgG4 constant region; also called antibody number 24; NKG2A chimeric antibody
binding result [4]: no binding (tested: initial concentration of 200 nM) | binding result [5]: binds

B16: cAb-33 (antibody, human IgG4 S228P, kappa, V domains shown)
VH: EVQLQQSVAELVRPGASVKLSCTASGFNIKNTYMDWVKQRPEQGLEWIGRIDPANGNTKYAPKFQGKATITADTSSNTAYLQLSSLTSEDTAIYYCAREGNWDDWFVYWGQGTLVTVSA
VL: DVLMTQTPLSLPVSLGDQASISCRSSQSIVHSNGNTYLEWFLQKPGQSPKLLIYKVSNRFSGVPDRFSGSGSGTDFTLKISRVEAEDLGVYYCFQGSHVPPTFGGGTKLEIKR
notes: human-mouse chimeric antibody, human IgG4 constant region; also called antibody number 33; NKG2A chimeric antibody
binding result [4]: no binding (tested: initial concentration of 200 nM) | binding result [5]: binds
